The values below are quoted from earlier work in paper PMC3253018.

The target in the data set is NiV-G attachment glycoprotein (Nipah virus) (UniProt Q9IH62).
Chain of NiV-G attachment glycoprotein (Nipah virus) (Q9IH62 whole entry): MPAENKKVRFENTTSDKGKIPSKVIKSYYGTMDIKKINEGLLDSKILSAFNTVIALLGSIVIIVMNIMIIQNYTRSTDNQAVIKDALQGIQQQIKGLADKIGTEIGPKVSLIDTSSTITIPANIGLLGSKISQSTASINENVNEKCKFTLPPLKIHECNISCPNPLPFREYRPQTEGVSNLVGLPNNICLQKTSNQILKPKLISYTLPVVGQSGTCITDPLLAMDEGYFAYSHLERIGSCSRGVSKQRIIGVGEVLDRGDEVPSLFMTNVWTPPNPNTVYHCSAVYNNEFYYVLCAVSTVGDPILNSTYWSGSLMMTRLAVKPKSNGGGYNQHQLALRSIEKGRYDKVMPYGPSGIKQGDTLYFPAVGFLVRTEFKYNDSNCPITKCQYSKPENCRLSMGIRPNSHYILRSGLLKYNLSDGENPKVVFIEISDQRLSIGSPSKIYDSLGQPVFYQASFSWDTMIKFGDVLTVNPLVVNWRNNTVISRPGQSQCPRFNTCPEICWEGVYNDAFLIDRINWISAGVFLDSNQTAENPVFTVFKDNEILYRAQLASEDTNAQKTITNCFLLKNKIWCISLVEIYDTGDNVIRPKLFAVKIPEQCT

Chain of ephrinB2 (P52799 28-333): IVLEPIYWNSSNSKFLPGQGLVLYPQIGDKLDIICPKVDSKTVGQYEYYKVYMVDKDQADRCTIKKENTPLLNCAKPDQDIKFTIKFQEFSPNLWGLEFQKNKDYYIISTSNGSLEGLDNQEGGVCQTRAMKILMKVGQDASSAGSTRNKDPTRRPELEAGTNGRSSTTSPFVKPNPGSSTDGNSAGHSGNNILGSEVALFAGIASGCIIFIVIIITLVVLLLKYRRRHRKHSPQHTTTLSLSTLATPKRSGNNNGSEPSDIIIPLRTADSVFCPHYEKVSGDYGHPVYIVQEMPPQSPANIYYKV

ephrinB2 (from UniProt P52799): the Kd was 0.06 nM.
